According to publication PMC10397247:

Columns and labels:
Test in all cases: two-hybrid library CCmax;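 further: natural log of median RNA to DNA barcode read ratio; higher means stronger binding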
[1] = molecular target: T1, APC2474-AA
T1 chain: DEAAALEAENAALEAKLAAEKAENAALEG

[2] = molecular target: T2, APC2543-AA; conditions: mean of both orientations
T2 chain: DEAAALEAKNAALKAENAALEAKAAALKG

[3] = molecular target: T3, APC2556-AA; conditions: mean of both orientations
T3 chain: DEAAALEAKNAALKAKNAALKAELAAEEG

[4] = molecular target: T4, APC2724-AA; conditions: mean of both orientations
T4 chain: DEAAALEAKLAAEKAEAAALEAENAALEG

[5] = molecular target: T5, APC2811-AA; conditions: mean of both orientations
T5 chain: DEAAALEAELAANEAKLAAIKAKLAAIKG

[6] = molecular target: T6, APC2981-AA; conditions: mean of both orientations
T6 chain: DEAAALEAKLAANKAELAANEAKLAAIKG

[7] = molecular target: T7, APC3265-AA; conditions: mean of both orientations
T7 chain: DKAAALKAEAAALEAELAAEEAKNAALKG

[8] = molecular target: T8, APC3323-AA; conditions: mean of both orientations
T8 chain: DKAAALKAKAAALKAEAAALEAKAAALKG

[9] = molecular target: T9, APC3354-AA; conditions: mean of both orientations
T9 chain: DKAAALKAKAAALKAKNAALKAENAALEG

[10] = molecular target: T10, APC3881-AA; conditions: mean of both orientations
T10 chain: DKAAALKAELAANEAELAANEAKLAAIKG

[11] = molecular target: T11, APC4100-AA; conditions: mean of both orientations
T11 chain: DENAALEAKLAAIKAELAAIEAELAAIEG

[12] = molecular target: T12, APC4336-AA; conditions: mean of both orientations
T12 chain: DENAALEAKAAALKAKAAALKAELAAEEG

[13] = molecular target: T13, APC5009-AA; conditions: mean of both orientations
T13 chain: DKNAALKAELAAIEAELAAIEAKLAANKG

[14] = molecular target: T14, APC542-AA; conditions: mean of both orientations
T14 chain: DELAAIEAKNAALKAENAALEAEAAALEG

[15] = molecular target: T15, APC5531-AA; conditions: mean of both orientations
T15 chain: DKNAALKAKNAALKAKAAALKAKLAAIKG

[16] = molecular target: T16, APC6088-AA; conditions: mean of both orientations
T16 chain: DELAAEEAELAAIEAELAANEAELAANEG

[17] = molecular target: T17, APC7524-AA; conditions: mean of both orientations
T17 chain: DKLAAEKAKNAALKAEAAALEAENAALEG

[18] = molecular target: T18, APC8401-AA; conditions: mean of both orientations
T18 chain: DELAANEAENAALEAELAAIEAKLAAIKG

[19] = molecular target: T19, APC8516-AA; conditions: mean of both orientations
T19 chain: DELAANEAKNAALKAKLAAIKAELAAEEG

[20] = molecular target: T20, APC9141-AA; conditions: mean of both orientations
T20 chain: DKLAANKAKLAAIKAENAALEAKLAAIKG

[21] = molecular target: T21, APC9182-AA; conditions: mean of both orientations
T21 chain: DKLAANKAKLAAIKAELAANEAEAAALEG

[22] = molecular target: T22, APC9291-AA; conditions: mean of both orientations
T22 chain: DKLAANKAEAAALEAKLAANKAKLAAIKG

[23] = molecular target: T23, APC9806-AA; conditions: mean of both orientations
T23 chain: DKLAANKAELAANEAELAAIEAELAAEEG

[24] = molecular target: T24, 4H1552-AA
T24 chain: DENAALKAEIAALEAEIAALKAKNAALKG

[25] = molecular target: T25, 4H1636-AA; conditions: mean of both orientations
T25 chain: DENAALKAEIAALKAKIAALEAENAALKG

[26] = molecular target: T26, 4H1867-AA; conditions: mean of both orientations
T26 chain: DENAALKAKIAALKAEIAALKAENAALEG

[27] = molecular target: T27, 4H2078-AA; conditions: mean of both orientations
T27 chain: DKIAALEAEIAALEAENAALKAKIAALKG

[28] = molecular target: T28, 4H2151-AA; conditions: mean of both orientations
T28 chain: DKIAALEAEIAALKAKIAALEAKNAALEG

[29] = molecular target: T29, 4H2165-AA; conditions: mean of both orientations
T29 chain: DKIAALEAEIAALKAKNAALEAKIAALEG

[30] = molecular target: T30, 4H2190-AA; conditions: mean of both orientations
T30 chain: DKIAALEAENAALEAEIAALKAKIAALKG

[31] = molecular target: T31, 4H2277-AA; conditions: mean of both orientations
T31 chain: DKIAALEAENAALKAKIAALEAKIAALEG

[32] = molecular target: T32, 4H234-AA; conditions: mean of both orientations
T32 chain: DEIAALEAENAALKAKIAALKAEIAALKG

[33] = molecular target: T33, 4H2354-AA; conditions: mean of both orientations
T33 chain: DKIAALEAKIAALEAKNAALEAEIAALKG

[34] = molecular target: T34, 4H2393-AA; conditions: mean of both orientations
T34 chain: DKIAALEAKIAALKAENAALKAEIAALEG

[35] = molecular target: T35, 4H2466-AA; conditions: mean of both orientations
T35 chain: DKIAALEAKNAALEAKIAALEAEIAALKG

[36] = molecular target: T36, 4H2505-AA; conditions: mean of both orientations
T36 chain: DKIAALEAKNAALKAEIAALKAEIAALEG

[37] = molecular target: T37, 4H2575-AA; conditions: mean of both orientations
T37 chain: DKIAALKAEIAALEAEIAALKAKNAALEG

[38] = molecular target: T38, 4H2617-AA; conditions: mean of both orientations
T38 chain: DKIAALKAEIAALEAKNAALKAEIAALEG

[39] = molecular target: T39, 4H2642-AA; conditions: mean of both orientations
T39 chain: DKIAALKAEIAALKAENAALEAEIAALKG

[40] = molecular target: T40, 4H2729-AA; conditions: mean of both orientations
T40 chain: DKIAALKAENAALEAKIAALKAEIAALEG

[41] = molecular target: T41, 4H2754-AA; conditions: mean of both orientations
T41 chain: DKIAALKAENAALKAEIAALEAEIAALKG

[42] = molecular target: T42, 4H2837-AA; conditions: mean of both orientations
T42 chain: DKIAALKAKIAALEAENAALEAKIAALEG

[43] = molecular target: T43, 4H2883-AA; conditions: mean of both orientations
T43 chain: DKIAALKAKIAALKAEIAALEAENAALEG

[44] = molecular target: T44, 4H2944-AA; conditions: mean of both orientations
T44 chain: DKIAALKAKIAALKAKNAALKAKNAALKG

[45] = molecular target: T45, 4H2949-AA; conditions: mean of both orientations
T45 chain: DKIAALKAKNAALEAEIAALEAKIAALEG

[46] = molecular target: T46, 4H3112-AA; conditions: mean of both orientations
T46 chain: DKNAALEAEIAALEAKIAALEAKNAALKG

[47] = molecular target: T47, 4H317-AA; conditions: mean of both orientations
T47 chain: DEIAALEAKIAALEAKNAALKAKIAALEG

[48] = molecular target: T48, 4H3343-AA; conditions: mean of both orientations
T48 chain: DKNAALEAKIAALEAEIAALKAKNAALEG

[49] = molecular target: T49, 4H335-AA
T49 chain: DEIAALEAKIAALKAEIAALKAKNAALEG

[50] = molecular target: T50, 4H342-AA; conditions: mean of both orientations
T50 chain: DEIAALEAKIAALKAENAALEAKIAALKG

[51] = molecular target: T51, 4H3427-AA; conditions: mean of both orientations
T51 chain: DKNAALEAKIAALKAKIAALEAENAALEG

[52] = molecular target: T52, 4H3606-AA; conditions: mean of both orientations
T52 chain: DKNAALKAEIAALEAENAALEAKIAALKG

[53] = molecular target: T53, 4H3627-AA; conditions: mean of both orientations
T53 chain: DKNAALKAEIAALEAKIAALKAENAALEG

[54] = molecular target: T54, 4H3655-AA; conditions: mean of both orientations
T54 chain: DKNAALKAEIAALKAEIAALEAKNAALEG

[55] = molecular target: T55, 4H3844-AA; conditions: mean of both orientations
T55 chain: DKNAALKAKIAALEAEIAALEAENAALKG

[56] = molecular target: T56, 4H3921-AA; conditions: mean of both orientations
T56 chain: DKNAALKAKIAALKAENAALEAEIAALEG

[57] = molecular target: T57, 4H429-AA; conditions: mean of both orientations
T57 chain: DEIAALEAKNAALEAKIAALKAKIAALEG

[58] = molecular target: T58, 4H454-AA; conditions: mean of both orientations
T58 chain: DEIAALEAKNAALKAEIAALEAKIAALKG

[59] = molecular target: T59, 4H48-AA; conditions: mean of both orientations
T59 chain: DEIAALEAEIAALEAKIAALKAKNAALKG

[60] = molecular target: T60, 4H566-AA; conditions: mean of both orientations
T60 chain: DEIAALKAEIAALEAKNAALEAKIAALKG

[61] = molecular target: T61, 4H605-AA; conditions: mean of both orientations
T61 chain: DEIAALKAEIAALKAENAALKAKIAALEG

[62] = molecular target: T62, 4H678-AA; conditions: mean of both orientations
T62 chain: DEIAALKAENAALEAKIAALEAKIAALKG

[63] = molecular target: T63, 4H717-AA; conditions: mean of both orientations
T63 chain: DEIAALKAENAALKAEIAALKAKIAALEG

[64] = molecular target: T64, 4H780-AA; conditions: mean of both orientations
T64 chain: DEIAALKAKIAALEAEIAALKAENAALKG

[65] = molecular target: T65, 4H794-AA; conditions: mean of both orientations
T65 chain: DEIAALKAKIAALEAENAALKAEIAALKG

[66] = molecular target: T66, 4H881-AA; conditions: mean of both orientations
T66 chain: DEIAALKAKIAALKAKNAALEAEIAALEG

[67] = molecular target: T67, 4H906-AA; conditions: mean of both orientations
T67 chain: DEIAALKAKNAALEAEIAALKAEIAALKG

[68] = molecular target: T68, 4H993-AA; conditions: mean of both orientations
T68 chain: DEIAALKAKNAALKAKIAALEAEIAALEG

DEAAALEAENAALEAKLAAEKAENAALEG [APC2474-AA] was tested, and the interaction score [1] was -1.69, the interaction score [2] was -1.61 and the interaction score [3] was -1.49. The interaction score [4] was -1.93, the interaction score [5] was -1.58 and the interaction score [6] was -1.45. It also gave an interaction score [7] of -1.52, an interaction score [8] of -1.45 and an interaction score [9] of -1.35. It also gave an interaction score [10] of -1.83, an interaction score [11] of -1.97 and an interaction score [12] of -1.67. It also gave an interaction score [13] of -1.39, an interaction score [14] of -1.4 and an interaction score [15] of -1.71. For the same binder, the interaction score [16] was -1.54, the interaction score [17] was -2.27 and the interaction score [18] was -1.53. For the same binder, the interaction score [19] was -1.93, the interaction score [20] was -2.1 and the interaction score [21] was -1.69. For the same binder, the interaction score [22] was -1.71 and the interaction score [23] was -1.64.

Work on DENAALKAEIAALEAEIAALKAKNAALKG [4H1552-AA] yielded an interaction score [24] of 0.838, an interaction score [25] of 0.254 and an interaction score [26] of 2.28. The interaction score [27] was -0.958, the interaction score [28] was -0.598 and the interaction score [29] was -1.44. The interaction score [30] was -0.831, the interaction score [31] was -1.3 and the interaction score [32] was 1.6. For the same binder, the interaction score [33] was -1.41, the interaction score [34] was -1.36 and the interaction score [35] was -1.4. It also gave an interaction score [36] of -0.681, an interaction score [37] of -0.206 and an interaction score [38] of -0.622. For the same binder, the interaction score [39] was 0.755, the interaction score [40] was -0.018 and the interaction score [41] was -0.498. The interaction score [42] was -0.547, the interaction score [43] was 2.2 and the interaction score [44] was -1.04. For the same binder, the interaction score [45] was -1.42, the interaction score [46] was -0.246 and the interaction score [47] was 0.795. It also gave an interaction score [48] of 0.455, an interaction score [49] of 1.76 and an interaction score [50] of -0.367. It also gave an interaction score [51] of 1.64, an interaction score [52] of -0.722 and an interaction score [53] of 1.45. For the same binder, the interaction score [54] was 1.01, the interaction score [55] was 1.43 and the interaction score [56] was -0.743. It also gave an interaction score [57] of -0.746, an interaction score [58] of -0.754 and an interaction score [59] of 0.191. It also gave an interaction score [60] of -0.817, an interaction score [61] of -1.23 and an interaction score [62] of -0.931. For the same binder, the interaction score [63] was -0.949, the interaction score [64] was 0.0206 and the interaction score [65] was -1.55. The interaction score [66] was -0.939, the interaction score [67] was -1.18 and the interaction score [68] was -0.53.
